According to patent JP2016028048A (dated 2016):
Substitutions are numbered along the chain they refer to. Each block holds one binder with its values, some of them ahead of it.

Target: T1, ヒト組織因子経路インヒビター (human TFPI) (human, UniProt P10646 29-304, limits assumed)
T1 construct: Coated on Maxisorp plates (ELISA) or amine-coupled to a CM5 chip (Biacore); also called ヒトTFPI; hTFPI
T1 sequence (looked up): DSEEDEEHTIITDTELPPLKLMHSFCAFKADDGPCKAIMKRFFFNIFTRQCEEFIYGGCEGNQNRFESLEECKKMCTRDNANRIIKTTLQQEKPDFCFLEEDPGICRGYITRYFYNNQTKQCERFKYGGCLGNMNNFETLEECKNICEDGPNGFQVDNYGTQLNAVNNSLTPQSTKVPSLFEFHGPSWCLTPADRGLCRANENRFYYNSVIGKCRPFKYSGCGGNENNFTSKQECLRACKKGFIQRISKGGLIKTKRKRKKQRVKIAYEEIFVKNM
Assay: ELISA, Fab in bacterial lysate on human TFPI-coated plate

- binding result: binds
B1: TP-2A10 (Fab, V domains shown)
VH: QVQLVESGGGLVQPGGSLRLSCAASGFTFTSYSMNWVRQAPGKGLEWVSAISYTGSNTHYADSVKGRFTISRDNSKNTLYLQMNSLRAEDTAVYYCARAFLGYKESYFDIWGQGTLVTVSS
VL: DIELTQPPSVSVAPGQTARISCSGDKLGKKYVHWYQQKPGQAPVLVIYGDDKRPSGIPERFSGSNSGNTATLTISGTQAEDEADYYCQAWGSISRFVFGGGTKLTVLG
notes: Human Fab (HuCal Gold), made in E. coli TG1

- binding result: binds
B2: TP-3D3 (Fab, V domains shown)
VH: QVQLVESGGGLVQPGGSLRLSCAASGFTFSSYASWVRQAPGKGLEWVSGISGDGSNTHYADSVKGRFTISRDNSKNTLYLQMNSLRAEDTAVYYCARYDNFYFDVWGQGTLVTVSS
VL: DIELTQPPSVSVAPGQTARISCSGDSLGSKFAHWYQQKPGQAPVLVIYDDSNRPSGIPERFSGSNSGNTATLTISGTQAEDEADYYCSTYTSRSHSYVFGGGTKLTVLG
notes: as for B1

- binding result: binds
B3: TP-2B1 (Fab, V domains shown)
VH: QVQLVESGGGLVQPGGSLRLSCAASGFTFSSYSMSWVRQASGKGLEWVSSIKGSGSNTYYADSVKGRFTISRDNSKNTLYLQMNSLRAEDTAVYYCARNGGLIDVWGQGTLVTVSS
VL: DIELTQPPSVSVAPGQTARISCSGDNLGNKYAHWYQQKPGQAPVLVIYYDNKRPSGIPERFSGSNSGNTATLTISGTQAEDEADYYCQSWTPGSNTMVFGGGTRLTVLG
notes: as for B1

- binding result: binds
B4: TP-3E1 (Fab, V domains shown)
VH: QVQLVESGGGLVQPGGSLRLSCAASGFTFSNYAMTWVRQAPGKGLEWVSVISSVGSNTYYADSVKGRFTISRDNSKNTLYLQMNSLRAEDTAVYYCARPTKAGRTWWWGPYMDVWGQGTLVTVSS
VL: DIELTQPPSVSVAPGQTARISCSGDNIGSYYAYWYQQKPGQAPVLVIYDDSNRPSGIPERFSGSNSGNTATLTISGTQAEDEADYYCQSYDSTGLLVFGGGTKLTVLG
notes: as for B1

- binding result: binds
B5: TP-4A7 (Fab, V domains shown)
VH: QVQLVESGGGLVQPGGSLRLSCAASGFTFRNYAMNWVRQAPGKGLEWVSVISGSSSYTYYADSVKGRFTISRDNSKNTLYLQMNSLRAEDTAVYYCARADLPYMVFDYWGQGTLVTVSS
VL: B4 VL with N26A, I27L, Y30K, Y31F, Y33H, N52E, S89A, T93G, G94L, L96Y
notes: as for B1

- binding result: binds
B6: TP-2B3 (Fab, V domains shown)
VH: QVQLQQSGPGLVKPSQTLSLTCAISGDSVSSNSAAWGWIRQSPGRGLEWLGMIYYRSKWYNSYAVSVKSRITINPDTSKNQFSLQLNSVTPEDTAVYYCARTMSKYGGPGMDVWGQGTLVTVSS
VL: DIVLTQSPATLSLSPGERATLSCRASQNIGSNYLAWYQQKPGQAPRLLIYGASTRATGVPARFNGSGSGTDFTLTISSLEPEDFAVYYCQQLNSIPVTFGQGTKVEIKR
notes: as for B1

- binding result: binds
B7: TP-3C2 (Fab, V domains shown)
VH: QVQLQQSGPGLVKPSQTLSLTCAISGDSVSSSSAAWSWIRQSPGRGLEWLGMIYYRSKWYNHYAVSVKSRITINPDTSKNQFSLQLNSVTPEDTAVYYCARGGSGVMDVWGQGTLVTVSS
VL: DIQMTQSPSSLSASVGDRVTITCRASQSITNYLNWYQQKPGKAPKLLIYDVSNLQSGVPSRFSGSGSGTDFTLTISSLQPEDFAVYYCQQYSGYPLTFGQGTKVEIKR
notes: as for B1

- binding result: binds
B8: TP-3G3 (Fab, V domains shown)
VH: QVQLVESGGGLVQPGGSLRLSCAASGFTFSSYSMSWVRQAPGKGLEWVSSISSSSSNTYYGDSVKGRFTISRDNSKNTLYLQMNSLRAEDTAVYYCARMHYKGMDIWGQGTLVTVSS
VL: B7 VL with S28N, T30H, N31S, Y32H, V51A, N53S, S92Y, G93D
notes: as for B1

- binding result: binds
B9: TP-3C3 (Fab, V domains shown)
VH: QVQLQQSGPGLVKPSQTLSLTCAISGDSVSSNSAAWGWIRQSPGRGLEWLGVIYYRSKWYNDYAVSVKSRITINPDTSKNQFSLQLNSVTPEDTAVYYCARARAKKSGGFDYWGQGTLVTVSS
VL: B7 VL with T30N, N31P, D50A, V51A, Y91L, S92D, G93N, Y94R, P95S, L96I
notes: as for B1

- binding result: binds
B10: TP-2B8 (Fab, V domains shown)
VH: QVQLVQSGAEVKKPGASVKVSCKASGYTFTGNSMHWVRQAPGQGLEWMGTIFPYDGTTKYAQKFQGRVTMTRDTSISTAYMELSSLRSEDTAVYYCARGVHSYFDYWGQGTLVTVSS
VL: DIELTQPPSVSVAPGQTARISCSGDNLRGYYASWYQQKPGQAPVLVIYEDNNRPSGIPERFSGSNSGNTATLTISGTQAEDEADYYCQSWDSPYVHVFGGGTKLTVLG
notes: as for B1

- binding result: binds
B11: TP-3F1 (Fab, V domains shown)
VH: QVQLVQSGAEVKKPGESLKISCKGSGYSFTDYWIGWVRQMPGKGLEWMGIIQPSDSDTNYSPSFQGQVTISADKSISTAYLQWSSLKASDTAMYYCARFMWWGKYDSGFDVWGQGTLVTVSS
VL: DIELTQPPSVSVAPGQTARISCSGDNIGSYFASWYQQKPGQAPVLVIYDDSNRPSGIPERFSGSNSGNTATLTISGTQAEDEADYYCEGSNVFGGGTKLTVLG
notes: as for B1

- binding result: binds
B12: TP-3H2 (Fab, V domains shown)
VH: QVQLVESGGGLVQPGGSLRLSCAASGFTFNSYYMSWVRQAPGKGLEWVSNISSSGSNTNYADSVKGRFTISRDNSKNTLYLQMNSLRAEDTAVYYCARVHYGFDFWGQGTLVTVSS
VL: DIELTQPPSVSVAPGQTARISCSGDKLGKYYAYWYQQKPGQAPVLVIYGDSKRPSGIPERFSGSNSGNTATLTISGTQAEDEADYYCSSAAFGSTVFGGGTKLTVLG
notes: as for B1

- binding result: binds
B13: TP-3C1 (Fab, V domains shown)
VH: QVQLVESGGGLVQPGGSLRLSCAASGFTFSSYSMHWVRQAPGKGLEWVSGISYSSSFTYYADSVKGRFTISRDNSKNTLYLQMNSLRAEDTAVYYCARALGGGVDYWGQGTLVTVSS
VL: DIALTQPASVSGSPGQSITISCTGTSSDLGGFNTVSWYQQHPGKAPKLMIYSVSSRPSGVSNRFSGSKSGNTASLTISGLQAEDEADYYCQSYDLNNLVFGGGTKLTVLG
notes: Human Fab (HuCal Gold), made in E. coli TG1; VL is the same entry as TP-2G9, VH the same entry as TP-3F2 (so in the source)

- binding result: binds
B14: TP-3F2 (Fab, V domains shown)
VH: B13 VH
VL: DIELTQPPSVSVAPGQTARISCSGDNLPSKSVYWYQQKPGQAPVLVIYGDNNRPSGIPERFSGSNSGNTATLTISGTQAEDEADYYCQSWTSRPMVVFGGGTKLTVLG
notes: as for B1

- binding result: binds
B15: TP-2B4 (Fab, V domains shown)
VH: QVQLVESGGGLVQPGGSLRLSCAASGFTFSNYSMTWVRQAPGKGLEWVSGISYNGSNTYYADSVKGRFTISRDNSKNTLYLQMNSLRAEDTAVYYCARIYYMNLLAGWGQGTLVTVSS
VL: DIELTQPPSVSVAPGQTARISCSGDALGTYYAYWYQQKPGQAPVLVIYGDMNRPSGIPERFSGSNSGNTATLTISGTQAEDEADYYCQSYDAGVKPAVFGGGTKLTVLG
notes: as for B1

- binding result: binds
B16: TP-3B3 (Fab, V domains shown)
VH: QVQLVESGGGLVQPGGSLRLSCAASGFTFSSYGMHWVRQAPGKGLEWVSNISYMGSNTNYADSVKGRFTISRDNSKNTLYLQMNSLRAEDTAVYYCARGLFPGYFDYWGQGTLVTVSS
VL: DIELTQPASVSVAPGQTARISCSGDNLRSKYAHWYQQKPGQAPVLVIYGDNNRPSGIPERFSGSNSGNTATLTISGTQAEDEADYYCSAYAMGSSPVFGGGTKLTVLG
notes: as for B1

- binding result: binds
B17: TP-3G1 (Fab, V domains shown)
VH: QVQLQQSGPGLVKPSQTLSLTCAISGDSVSSNSGGWGWIRQSPGRGLEWLGLIYYRSKWYNAYAVSVKSRITINPDTSKNQFSLQLNSVTPEDTAVYYCARYLGSNFYVYSDVWGQGTLVTVSS
VL: DIQMTQSPSSLSASVGDRVTITCRASQGISSYLHWYQQKPGKAPKLLIYGASTLQSGVPSRFSGSGSGTDFTLTISSLQPEDFATYYCQQQNGYPFTFGQGTKVEIKR
notes: as for B1

- binding result: binds
B18: TP-2A6 (Fab, V domains shown)
VH: QVQLVESGGGLVQPGGSLRLSCAASGFTFSRYAMSWVRQAPGKGLEWVSSIISSSSETYYADSVKGRFTISRDNSKNTLYLQMNSLRAEDTAVYYCARLMGYGHYYPFDYWGQGTLVTVSS
VL: DIELTQPPSVSVAPGQTARISCSGDKIGSKYVYWYQQKPGQAPVLVIYDSNRPSGIPERFSGSNSGNTATLTISGTQAEDEADYYCASYDSIYSYWVFGGGTKLTVLG
notes: as for B1

- binding result: binds
B19: TP-4B7 (Fab, V domains shown)
VH: B9 VH with G37S, V52I, Y55K, A102W, R103H, A104S, K105D, S107H, G108W
VL: DIVMTQSPLSLPVTPGEPASISCRSSQSLVFSDGNTYLNWYLQKPGQSPQLLIYKGSNRASGVPDRFSGSGSGTDFTLKISRVEAEDVGVYYCQQYDSYPLTFGQGTKVEIKR
notes: as for B1

- binding result: binds
B20: TP-2A8 (Fab, V domains shown)
VH: QVQLVESGGGLVQPGGSLRLSCAASGFTFRSYGMSWVRQAPGKGLEWVSSIRGSSSSTYYADSVKGRFTISRDNSKNTLYLQMNSLRAEDTAVYYCARKYRYWFDYWGQGTLVTVSS
VL: DIELTQPPSVSVAPGQTARISCSGDNLRNYYAHWYQQKPGQAPVVVIYYDNNRPSGIPERFSGSNSGNTATLTISGTQAEDEADYYCQSWDDGVPVFGGGTKLTVLG
notes: Human Fab (HuCal Gold), made in E. coli TG1; also called Fab-2A8; TP-2A8-Fab
